Test results from paper PMC11914429, “Reprograming of the ubiquitin ligase Ubr1 by intrinsically disordered Roq1 through cooperating multifunctional motifs” (The EMBO Journal, 2025).

T1: FLAG-Ubr1, P19812
T1 chain: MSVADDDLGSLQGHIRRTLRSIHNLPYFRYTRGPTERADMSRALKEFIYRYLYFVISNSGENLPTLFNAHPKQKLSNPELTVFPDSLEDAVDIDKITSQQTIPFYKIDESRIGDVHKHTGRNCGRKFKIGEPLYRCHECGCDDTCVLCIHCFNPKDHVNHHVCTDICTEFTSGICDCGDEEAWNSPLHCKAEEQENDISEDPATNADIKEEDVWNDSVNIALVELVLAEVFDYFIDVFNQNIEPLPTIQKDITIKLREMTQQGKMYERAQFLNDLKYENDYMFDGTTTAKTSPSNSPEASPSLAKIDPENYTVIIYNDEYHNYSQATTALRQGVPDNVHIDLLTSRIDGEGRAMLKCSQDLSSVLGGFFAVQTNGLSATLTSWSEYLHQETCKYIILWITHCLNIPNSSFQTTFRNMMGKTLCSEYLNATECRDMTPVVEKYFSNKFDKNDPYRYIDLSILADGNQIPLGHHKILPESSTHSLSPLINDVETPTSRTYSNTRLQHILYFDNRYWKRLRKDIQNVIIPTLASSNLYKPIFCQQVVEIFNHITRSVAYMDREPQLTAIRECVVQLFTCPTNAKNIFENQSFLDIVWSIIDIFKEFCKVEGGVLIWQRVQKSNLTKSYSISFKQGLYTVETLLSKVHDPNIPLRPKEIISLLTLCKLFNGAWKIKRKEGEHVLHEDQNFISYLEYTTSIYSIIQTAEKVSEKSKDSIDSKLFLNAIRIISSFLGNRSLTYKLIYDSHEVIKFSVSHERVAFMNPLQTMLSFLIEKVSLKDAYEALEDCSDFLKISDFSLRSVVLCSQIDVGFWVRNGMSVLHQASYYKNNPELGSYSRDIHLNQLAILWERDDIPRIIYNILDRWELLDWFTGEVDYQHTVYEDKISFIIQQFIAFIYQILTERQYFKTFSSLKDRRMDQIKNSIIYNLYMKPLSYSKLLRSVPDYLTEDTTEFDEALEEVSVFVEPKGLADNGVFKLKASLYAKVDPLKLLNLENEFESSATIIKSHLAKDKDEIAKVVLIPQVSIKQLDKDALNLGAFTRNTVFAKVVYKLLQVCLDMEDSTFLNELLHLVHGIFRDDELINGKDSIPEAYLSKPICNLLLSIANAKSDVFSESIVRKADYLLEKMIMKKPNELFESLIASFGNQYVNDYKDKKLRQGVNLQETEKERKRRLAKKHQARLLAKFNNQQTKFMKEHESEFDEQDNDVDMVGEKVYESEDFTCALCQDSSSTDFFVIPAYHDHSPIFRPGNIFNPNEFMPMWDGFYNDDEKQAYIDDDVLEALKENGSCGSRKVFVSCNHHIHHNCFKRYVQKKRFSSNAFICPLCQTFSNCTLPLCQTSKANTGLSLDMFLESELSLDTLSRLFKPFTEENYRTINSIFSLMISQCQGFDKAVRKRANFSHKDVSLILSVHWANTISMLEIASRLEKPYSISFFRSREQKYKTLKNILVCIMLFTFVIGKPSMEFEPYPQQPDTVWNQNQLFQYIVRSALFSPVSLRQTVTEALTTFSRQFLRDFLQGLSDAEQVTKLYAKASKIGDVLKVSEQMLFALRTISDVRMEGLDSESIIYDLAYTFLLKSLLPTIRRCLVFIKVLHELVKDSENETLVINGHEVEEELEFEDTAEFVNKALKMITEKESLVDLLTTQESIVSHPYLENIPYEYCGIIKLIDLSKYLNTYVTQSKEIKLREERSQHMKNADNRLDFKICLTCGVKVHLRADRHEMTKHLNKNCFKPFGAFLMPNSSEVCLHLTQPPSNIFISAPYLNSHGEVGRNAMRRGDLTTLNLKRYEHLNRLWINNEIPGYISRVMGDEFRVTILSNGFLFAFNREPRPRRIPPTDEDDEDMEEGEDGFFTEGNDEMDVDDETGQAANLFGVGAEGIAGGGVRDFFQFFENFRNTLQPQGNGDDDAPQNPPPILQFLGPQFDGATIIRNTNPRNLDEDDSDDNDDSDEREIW


How the values were obtained:
FLAG-Ubr1 = biological target: T2, FLAG-Ubr1 (S. cerevisiae, UniProt P19812 1-1950); assay: BLI; biotinylated Rad6 immobilised on streptavidin biosensors, 100 nM soluble Ubr1, without or with 200 nM or 1 µM Roq1(22-104); essentially irreversible, only association analysed; conditions: both partners purified
T2 construct: ubiquitin ligase Ubr1 of yeast; single subunit of about 200 kDa, nearly 2000 residues; The purified protein comes from a strain with ubr1::nat-PGPD-FLAG-UBR1, so probably the whole protein; source: protease-deficient yeast expressing FLAG-Ubr1 (SSY2908), purified (anti-FLAG agarose, eluted with FLAG peptide); roq1 knockout yeast expressing FLAG-Ubr1, in lysate; not shown: FLAG, N-terminal, kept

FLAG-Ubr1, P19812 = biological target: T1, FLAG-Ubr1, P19812; assay: biolayer interferometry; conditions: chain shown with the change; 50 nM Ubr1, association step 5 min; value read at end of association (300 s); 50 mM HEPES, 150 mM NaCl, 10 mM MgCl2, 0.05% Tween-20, 0.02% BSA; parent: est. 4.5; read off a plot

Row | binding result (FLAG-Ubr1) | response (FLAG-Ubr1, P19812) [nm] | Binder
1 | binds |  | Rad6 (enzyme, UniProt P06104 1-172, looked up, biotin (amino-reactive NHS-PEG4-Biotin), ubiquitin-conjugating enzyme Rad6, not conjugated to ubiquitin; The plasmid pCA528-Rad6 was a gift (Axel Mogk); It is probably the yeast protein; also called unloaded Rad6; source: E. coli BL21(DE3), purified (His6-SUMO removed with Ulp1, SEC); not shown: His6-SUMO, N-terminal, cleaved) MSTPARRRLMRDFKRMKEDAPPGVSASPLPDNVMVWNAMIIGPADTPYEDGTFRLLLEFDEEYPNKPPHVKFLSEMFHPNVYANGEICLDILQNRWTPTYDVASILTSIQSLFNDPNPASPANVEAATLFKDHKSQYVKRVKETVEKSWEDDMDDMDDDDDDDDDDDDDEAD
2 |  | 0 | Roq1(22-104) R22A; Y55A; Y56A; F57A; V58A (protein) ASQRDQTRVDSLVEESPMGDFGINNQPTQPGVIAAAAELTNLGIQENTSSNNNNNNNHGDDENGSRYGHGSSLGGDVHSRRCS
3 |  | 2 | Roq1(22-104) Y55A; Y56A; F57A; V58A (protein) RSQRDQTRVDSLVEESPMGDFGINNQPTQPGVIAAAAELTNLGIQENTSSNNNNNNNHGDDENGSRYGHGSSLGGDVHSRRCS
4 |  | 0.5 | Roq1(22-104) R22A (protein) ASQRDQTRVDSLVEESPMGDFGINNQPTQPGVIYYFVELTNLGIQENTSSNNNNNNNHGDDENGSRYGHGSSLGGDVHSRRCS
